Assay [1] deals with T1, human PD-L1 (Programmed Cell Death 1 Ligand 1) (human, UniProt Q9NZQ7 19-290).
T1 construct: whole, on cells; Endogenous PD-L1 on breast cancer cell lines; also called CD274; PDCD1LG1
The experiment in a line: Scatchard analysis on cells (MDA-MB-231 used for binding assays), 3-3000 pM ^111In-PD-L1.3.1, 4 h on ice, gamma counter; 111In-labeled antibody; Scatchard affinity on MDA-MB-231 cells. The protocol:
(§1) Cells were cultured to confluency in six-well plates and were incubated for 4 h on ice with increasing concentrations ¹¹¹In-PD-L1.3.1 (3-3000 pM) in 1 ml RPMI1640 containing 0.5% BSA. Non-specific binding was determined by co-incubation with 100 nM PD-L1.3.1. After incubation, cells were washed with PBS and the cell-associated activity was measured in a shielded well-type gamma counter. The specific binding (total binding−nonspecific binding) was plotted against the bound/free ratio. Data were analyzed by linear regression to determine PD-L1 receptor density per cell and to determine the Kd of ¹¹¹In-PD-L1.3.1.

Assay [2] has as its target T1, human PD-L1 (Programmed Cell Death 1 …). The experiment in a line: saturation binding / Scatchard analysis on cells, 3-3000 pM ^111In-PD-L1.3.1 in 1 ml, 4 h on ice, non-specific binding (100 nM PD-L1.3.1) subtracted; the panel does not name the cell line (MDA-MB-231 cells were used in subsequent binding assays). The protocol: as §1
For assay [3] the target is unchanged. The assay is described as follows: competition on MDA-MB-231 cells, 4 h on ice; unlabeled PD-L1.3.1 (1-1000 pM) against 20 pM ^111In-PD-L1.3.1 as competitor; gamma counter; unlabeled antibody; competition IC50 on MDA-MB-231 cells. The protocol:
MDA-MB-231 cells were cultured to confluency in six-well plates. The 50% inhibitory concentration (IC₅₀) of PD-L1.3.1 blocking of ¹¹¹In-PD-L1.3.1 binding was determined by incubating the cells for 4 h on ice in 1 ml RPMI1640 0.5% BSA, containing 20 pM ¹¹¹In-PD-L1.3.1 (1 kBq) and increasing concentrations of unlabeled PD-L1.3.1 (1-1000 pM). After incubation, cells were washed with PBS and the cell-associated activity was measured in a gamma counter. The IC₅₀ was defined as the antibody concentration that was required to inhibit binding of the radio labeled antibody by 50%. IC₅₀ values were calculated using GraphPad Prism.

From US20180064825A1 (INSERM INSTITUT NATIONAL DE LA SANTE ET DE LA RECHERCHE …, published 2018) come the findings set out here.

By Kd is commonly meant a measure of binding affinity in units of concentration. A lower Kd goes with tighter binding. In general, IC50 refers to the concentration at which inhibition is half-maximal. A low value points to higher potency.

T1 sequence (Q9NZQ7 19-290): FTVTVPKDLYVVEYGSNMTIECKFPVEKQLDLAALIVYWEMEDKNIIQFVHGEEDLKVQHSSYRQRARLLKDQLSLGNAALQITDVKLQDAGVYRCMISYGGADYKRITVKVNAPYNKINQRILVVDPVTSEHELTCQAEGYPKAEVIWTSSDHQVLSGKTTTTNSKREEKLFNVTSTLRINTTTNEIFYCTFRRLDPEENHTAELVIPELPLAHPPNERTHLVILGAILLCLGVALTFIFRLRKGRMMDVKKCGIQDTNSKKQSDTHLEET

B1: ^111In-DTPA-PD-L1.3.1 (antibody, V domains shown)
VH: EVQLQQSGTELVKPGASVKLSCTTSGFNIQDTYMHWVKQRPEQGLEWIGWIDPANGNTKYDPKFQGKATIIADTSSNTAYLQLRGLTSEDTAVYYCARSGVSTAHFDYWGQGTTLTVSS
VL: QIVLSQSPAILSASPGEKVTMTCRASSSVSFMHWYQQKPGSSPKPWIYATSNLASGVPTRFSGSGSGTSYSLTLSRVEAEDAATYYCQQWSSYPRTFGGGTKLEIK
modifications: ITC-DTPA conjugated and chelating ^111In; residues and chain not stated
For the molecule B1, the Kd in assay [1] was determined as 0.97 nM; in assay [2] it was 1 nM.

B2: PD-L1.3.1 antibody (murine monoclonal IgG1, unlabeled) (antibody, V domains shown)
VH: B1 VH
VL: B1 VL
notes: also called PD-L1.3.1 mAb; unlabeled PD-L1.3.1
As for B2, in assay [3], the IC50 came to 0.15 nM.
